Measured values published in publication PMC12922752 (Science Advances, 2026).
One block for each molecule: values may come before it.

Columns and labels:
[1] = biological target: Rpn1, human, recombinant full-length (human) (UniProt Q13200); assay: ITC
[2] = biological target: Hsp70 nucleotide-binding domain (Hsp70NBD); assay: ITC
[3] = biological target: Rpn1, human, recombinant full-length (human, UniProt Q13200 1-908); assay: cross-linking
Rpn1, human, recombinant full-length, sequence (Q13200 whole entry): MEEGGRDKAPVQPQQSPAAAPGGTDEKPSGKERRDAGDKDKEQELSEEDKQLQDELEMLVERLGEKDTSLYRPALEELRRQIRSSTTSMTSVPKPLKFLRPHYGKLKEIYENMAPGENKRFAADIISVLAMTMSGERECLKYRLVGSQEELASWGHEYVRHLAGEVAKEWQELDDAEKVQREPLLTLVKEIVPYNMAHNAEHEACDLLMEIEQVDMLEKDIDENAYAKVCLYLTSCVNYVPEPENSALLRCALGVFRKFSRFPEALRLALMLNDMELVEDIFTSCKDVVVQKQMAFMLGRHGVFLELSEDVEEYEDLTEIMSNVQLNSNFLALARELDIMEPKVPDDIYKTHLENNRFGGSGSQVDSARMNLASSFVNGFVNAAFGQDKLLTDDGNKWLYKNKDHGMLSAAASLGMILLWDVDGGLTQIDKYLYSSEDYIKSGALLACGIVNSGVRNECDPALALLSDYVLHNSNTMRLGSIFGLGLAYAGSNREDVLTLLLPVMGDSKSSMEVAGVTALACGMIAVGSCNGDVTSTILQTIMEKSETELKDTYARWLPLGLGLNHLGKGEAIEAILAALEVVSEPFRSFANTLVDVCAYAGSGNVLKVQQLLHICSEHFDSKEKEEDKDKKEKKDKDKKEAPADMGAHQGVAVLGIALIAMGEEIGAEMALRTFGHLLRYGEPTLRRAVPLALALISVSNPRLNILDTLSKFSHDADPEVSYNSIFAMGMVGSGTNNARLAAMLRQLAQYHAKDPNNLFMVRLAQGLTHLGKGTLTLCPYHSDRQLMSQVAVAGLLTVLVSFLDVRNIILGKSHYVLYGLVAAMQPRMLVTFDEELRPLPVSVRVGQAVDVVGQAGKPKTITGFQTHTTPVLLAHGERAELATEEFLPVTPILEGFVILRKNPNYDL

Rpn1, human, recombinant full-length (human), sequence (Q13200 whole entry, the tested form may be a part): as the sequence (Q13200 whole entry) above

Kd [1]: 500 nM
Kd [2]: 50 nM
Molecule: Bcl-2-associated anthanogene 1 (Bag1), full-length (natural protein)

binding result [3]: binds
B1: Rpt2 of the ATPase ring isolated from Saccharomyces cerevisiae (natural protein)
chain: MGQGVSSGQDKKKKKGSNQKPKYEPPVQSKFGRKKRKGGPATAEKLPNIYPSTRCKLKLLRMERIKDHLLLEEEFVSNSEILKPFEKKQEEEKKQLEEIRGNPLSIGTLEEIIDDDHAIVTSPTMPDYYVSILSFVDKELLEPGCSVLLHHKTMSIVGVLQDDADPMVSVMKMDKSPTESYSDIGGLESQIQEIKESVELPLTHPELYEEMGIKPPKGVILYGAPGTGKTLLAKAVANQTSATFLRIVGSELIQKYLGDGPRLCRQIFKVAGENAPSIVFIDEIDAIGTKRYDSNSGGEREIQRTMLELLNQLDGFDDRGDVKVIMATNKIETLDPALIRPGRIDRKILFENPDLSTKKKILGIHTSKMNLSEDVNLETLVTTKDDLSGADIQAMCTEAGLLALRERRMQVTAEDFKQAKERVMKNKVEENLEGLYL
